From patent US20140178390A1 (published 2014)

T1: Cynomolgus CXCR7 (cynomolgus, UniProt P25106 1-362 (human entry))
T1 construct: On transfected HEK293 cells; also called cCXCR7; cyno CXCR7
T1 chain: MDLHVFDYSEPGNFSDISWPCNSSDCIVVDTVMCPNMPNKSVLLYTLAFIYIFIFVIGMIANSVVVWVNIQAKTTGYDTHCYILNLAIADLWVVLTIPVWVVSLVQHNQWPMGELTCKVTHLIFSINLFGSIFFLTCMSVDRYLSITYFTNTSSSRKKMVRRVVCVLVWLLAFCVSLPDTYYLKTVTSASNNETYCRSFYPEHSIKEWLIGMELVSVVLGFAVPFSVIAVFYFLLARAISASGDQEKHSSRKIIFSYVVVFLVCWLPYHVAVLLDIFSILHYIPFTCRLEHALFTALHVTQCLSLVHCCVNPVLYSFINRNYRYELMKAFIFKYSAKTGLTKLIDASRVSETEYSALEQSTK

B1: Nanobody 08A05 with Tag-2 (VHH)
VHH: EVQLVESGGGLVQAGDSLRLSCAASGLTFSNYDMGWFRQAPGKEREFVGASWWSGGAPYYSDSVKGRFTISRDNAKNTVYLQANSLRPEDTAVYYCAAKRLRSFASGGSYDYWGQGTQVTVSS
notes: Purified from E. coli periplasm
B2: Nanobody 07C03 with Tag-2 (VHH)
VHH: EVQLVESGGGLVQAGESLTLSCAASGRTLSAYIMGWFRQAPGKEREFVAGIWSGGYTHLADSAKGRFSISRDNAKNTVYLQMNGLKPEDTAVYYCAAGLRGRQYSNWGQGTQVTVSS
notes: as for B1
B3: Nanobody 07B11 with Tag-2 (VHH)
VHH: EVQLVESGGNLVQAGGSLGLSCAASVSISSIHIMGWYRQAPGKQRDLVATITSGGSTAYADSVKGRFTVSKDNAKNTVYLQMDSLKPEDTSVYYCAAEVRNGVFGKWNHYWGQGTQVTVSS
notes: as for B1
B4: Nanobody 08A10 with Tag-2 (VHH)
VHH: EVQLVESGGGLVQAGGSLRLSCAASGSIFSIAAMGWYRQATGKQRELVATITDGGTTTYADSVKGRVTISRDRSANTVYLAMNNLKPDDTAVYYCYAYLRYTSRVPGDNYWGQGTQVTVSS
notes: as for B1
B5: Nanobody 08A05 with Tag-1 (VHH)
VHH: B1 VHH
notes: periplasmic extract in the screening FACS
B6: Nanobody 07C03 with Tag-1 (VHH)
VHH: B2 VHH
notes: as for B5
B7: Nanobody 07B11 with Tag-1 (VHH)
VHH: B3 VHH
notes: as for B5
B8: Nanobody 08A10 with Tag-1 (VHH)
VHH: B4 VHH
notes: as for B5
B9: Nanobody 01C10 with Tag-2 (VHH)
VHH: EVQLVESGGGLVQTGASLRLSCAASGRTFSNYAMGWFRQAPGKERERVAAITPRAFTTYYADSVKGRFTISRDNAKNTAYLQMVSLKPEDTAVYYCAAQLVGSGSNLGRQESYAYWGQGTQVTVSS
notes: as for B1
B10: Nanobody 01C10 with Tag-1 (VHH)
VHH: B9 VHH
B11: Mab 11G8 (R&D Systems) (antibody, V domains shown)
VH: EVKLVESGGDLVQPGGSLKLSCATSGFTFSDYYMFWVRQTPEKRLEWVAYITNGGDRSYYSDTVTGRFIISRDNAKNTLYLQMSRLKSEDTAMYYCARQGNWAAWFVYWGQGTLVTVSA
VL: DVLMTQTPLSLPVSLGDQASISCRSSHYIVHSDGNTYLEWYLQKPGQSPKLLIYKVSNRFSGVPDRFSGSGSGTDFTLKISRVEAEDLGIYYCFQGSHVPLTFGAGTKLELKR

Molecular target: T2, Human CXCR7 (human, UniProt P25106 1-362)
T2 construct: see assay field; also called hCXCR7
Test: FACS binding, purified protein on stable HEK-CXCR7 cells

T2 sequence (P25106 whole entry): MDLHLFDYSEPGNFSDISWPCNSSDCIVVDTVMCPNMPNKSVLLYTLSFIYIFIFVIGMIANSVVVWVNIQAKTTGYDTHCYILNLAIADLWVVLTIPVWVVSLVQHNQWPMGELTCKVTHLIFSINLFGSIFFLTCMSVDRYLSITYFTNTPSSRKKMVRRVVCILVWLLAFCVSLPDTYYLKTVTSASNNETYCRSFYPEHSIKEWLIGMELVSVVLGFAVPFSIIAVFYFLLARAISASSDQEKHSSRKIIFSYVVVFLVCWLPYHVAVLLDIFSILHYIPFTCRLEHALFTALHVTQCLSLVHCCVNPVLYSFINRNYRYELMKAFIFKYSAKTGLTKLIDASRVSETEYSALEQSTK

Plateau [mcf] | Binder
28500 mcf | B1
33100 mcf | B2
24900 mcf | B3
34900 mcf | B4

Molecular target: T2, Human CXCR7
Test: FACS, periplasmic extract on Hek293 hCXCR7 cells
Protocol: (§1) Clones representing distinct Nanobody B-cell lineages were tested as periplasmic extracts for their binding to cell surface exposed CXCR7. In this assay, 5-fold dilutions of periplasmic extract were incubated with Hek293 hCXCR7 and Hek293 wt cells. Binding of the Nanobodies was detected using mouse anti-myc (Serotec), followed by anti-mouse IgG-PE (Jackson Immununoresearch).

Hek-CXCR7 [MCF] | Binder
18600 MCF | B5
23400 MCF | B6
42900 MCF | B7
27400 MCF | B8

Molecular target: T1, Cynomolgus CXCR7
Test: FACS on HEK293 cells expressing cynomolgus CXCR7, 800 nM Nanobody
Protocol: (§2) HEK293 cells transfected respectively with pcDNA3.1-hCXCR7 and pcDNA3.1-mCXCR7 were used to test cross-reactive binding of Nanobodies to mouse CXCR7 in FACS analysis. […] Nanobody binding was detected using mouse anti-myc (Serotec) and anti-mouse IgG-PE (Jackson Immunoresearch) and Mab binding by goat anti-mouse IgG-PE (Jackson Immunoresearch).
Cross-reactive binding to cynomolgus CXCR7 was assessed in the same way.

binding result | Binder
binds | B1
binds | B2
binds | B3
binds | B4
binds | B9

Molecular target: T3, Mouse CXCR7 (mouse, UniProt P56485 1-362)
T3 construct: On transfected HEK293 cells; also called mCXCR7
Test: FACS on HEK293 cells transfected with pcDNA3.1-mCXCR7
Text: as §2

T3 sequence (P56485 whole entry): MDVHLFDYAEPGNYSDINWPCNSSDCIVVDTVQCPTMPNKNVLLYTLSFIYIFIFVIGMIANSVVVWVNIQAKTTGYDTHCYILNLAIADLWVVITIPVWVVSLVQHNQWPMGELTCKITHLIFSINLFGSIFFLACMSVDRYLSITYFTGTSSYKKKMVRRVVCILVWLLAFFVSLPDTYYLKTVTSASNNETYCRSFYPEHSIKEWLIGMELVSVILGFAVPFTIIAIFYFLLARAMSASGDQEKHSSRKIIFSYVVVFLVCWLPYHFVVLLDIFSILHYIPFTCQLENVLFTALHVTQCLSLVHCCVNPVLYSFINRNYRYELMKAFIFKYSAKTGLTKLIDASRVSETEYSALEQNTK

binding result | Binder
no binding (tested: 800 nM) | B3
no binding (tested: 800 nM) | B4

Molecular target: T2, Human CXCR7
Test: phage ELISA on immobilized hCXCR7 VLPs, OD 450 nm
Protocol: (§3) From all round 2 selection outputs clones were screened in phage ELISA on 2 units of immobilized CXCR7VLPs applying 10-fold dilutions of phage supernatant. […] The reaction was stopped with H₂SO₄ and the absorbance was measured at 450 nm using Sunrise TECAN spectrophotometer (TECAN). Nanobodies, showing a minimally 2-fold increased ELISA signal on hCXCR7VLPs over non-transfected control VLPs, were considered to be CXCR7 specific. CXCR7 specific Nanobodies were sequenced and redundant Nanobodies (identical AA sequence) were removed.

CXCR7-LP 2U/well [OD] | Binder
0.019 OD | B5
0.053 OD | B6
0.041 OD | B7
0.104 OD | B8
0.145 OD | B10

Molecular target: T2, Human CXCR7
Test: competition FACS with 4 nM biotinylated SDF-1 on HEK-hCXCR7 cells

competition relative to unlabelled SDF-1 (%) | Binder
> 95% | B2

Molecular target: T2, Human CXCR7
Test: FACS, Hek293 hCXCR7 over Hek293 wt cells
Protocol: as §1

Fold Hek CXCR7/CXCR4 | Binder
60.1 fold | B5
73.2 fold | B6
110 fold | B7
85.1 fold | B8

Molecular target: T3, Mouse CXCR7
Test: FACS on HEK293 cells transfected with pcDNA3.1-mCXCR7, 800 nM Nanobody
Text: as §2

binding result | Binder
binds | B1
binds | B2
binds | B9

Molecular target: T2, Human CXCR7
Test: [125I]-CXCL12 displacement on NIH3T3-hCXCR7 cells
Protocol: (§4) After incubation, cells were washed twice, lysed with RIPA buffer and the ¹²⁵I signal was measured.

Ki | Binder
13.6 nM | B1
12.2 nM | B2
96.1 nM | B3
4.4 nM | B11
12.1 nM | B4
20.7 nM | B9

Molecular target: T2, Human CXCR7
Test: [125I]-CXCL12 displacement on NIH3T3-hCXCR7 cells, relative to cold SDF-1
Protocol: as §4

Average SDF-1 displacement (%) | Binder
77% | B1
78% | B2
75% | B3
24% | B11
75% | B4
31% | B9

Molecular target: T2, Human CXCR7
Test: phage ELISA, hCXCR7 VLPs over non-transfected control VLPs
Protocol: as §3

Fold CXCR7-LP/Null-LP | Binder
2.4 fold | B5
4.4 fold | B6
4.1 fold | B7
17.3 fold | B8
4.2 fold | B10
